In patent publication US20180369322A1:

Experiments:
[1] = biological target: rat plasma proteins; experiment: equilibrium dialysis, drug at 10 and 100 µM, rat plasma
[2] = biological target: human plasma proteins; experiment: equilibrium dialysis, drug at 10 and 100 µM, human plasma
[3] = biological target: monkey plasma proteins; experiment: equilibrium dialysis, drug at 10 and 100 µM, monkey plasma

in vitro plasma protein binding [1]: > 99.9%
in vitro plasma protein binding [2]: > 99.9%
in vitro plasma protein binding [3]: > 99.9%
Substance: R5000 (peptide)
